Results as given in the supplement of paper PMC10567573.

B1: FCHSD1 (parent)
chain: LEAAEVILEHAHRGEQTTSQVSWE

Variants of: B1
Assay: protein stability index of a GFP-peptide fusion (GPS, HEK-293T) (PSI 1-6); higher = more stable
Details: c terminus: a fixed tail appended
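Note: lentivirally expressed fusions sorted by FACS into six bins by GFP to DsRed ratio, PSI derived from sequencing read proportions per bin multiplied by bin number.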

Row | Variant | protein stability index
1 | S22I | 4.41
2 | S22C | 3.85
3 | S22P | 5.17
4 | S22T | 3.8
5 | S22N | 4.47
6 | S22Y | 4.63
7 | S22K | 4.93
8 | S22A | 4.57
9 | S22F | 3.71
10 | S22G | 4.89
11 | S22L | 3.79
12 | S22M | 4.54
13 | S22V | 5.24
14 | S22Q | 4.98
15 | S22E | 4.68
16 | S22R | 3.74
17 | S22D | 4.77
18 | Q20L | 4.17
19 | Q20M | 4.34
20 | Q20R | 4.45
21 | Q20T | 3.86
22 | Q20V | 4.02
23 | Q20N | 4.86
24 | Q20I | 4.42

Row | Variant | protein stability index
25 | Q20Y | 4.26
26 | Q20A | 3.72
27 | Q20S | 4.51
28 | Q20F | 3.76
29 | Q20H | 4.2
30 | Q20C | 3.95
31 | Q20K | 5.02
32 | Q20D | 5.02
33 | Q20P | 4.38
34 | S19V | 2.37
35 | S19M | 3
36 | S19F | 2.97
37 | S19D | 5.11
38 | S19N | 4.7
39 | S19Y | 2.64
40 | S19H | 4.14
41 | S19P | 4.7
42 | S19R | 4.42
43 | S19Q | 4.89
44 | S19I | 3.02
45 | S19C | 3.3
46 | S19T | 4.21
47 | S19A | 2.6
48 | S19E | 4.75

Row | Variant | protein stability index
49 | S19L | 2.8
50 | S19K | 4.45
51 | E24Y | 3.99
52 | E24S | 4.46
53 | E24C | 3.88
54 | E24A | 3.2
55 | E24F | 2.65
56 | E24G | 2.57
57 | E24N | 3.92
58 | E24W | 2.66
59 | E24V | 3.07
60 | E24L | 2.95
61 | E24R | 3.47
62 | E24Q | 3.95
63 | E24K | 4.64
64 | E24M | 2.72
65 | E24H | 4
66 | E24P | 4.3
67 | E24I | 2.01
68 | V21Y | 3.9
69 | V21C | 4.62
70 | V21M | 4.32
71 | V21I | 3.5
72 | V21Q | 4.44

Row | Variant | protein stability index
73 | V21E | 5.07
74 | V21A | 5.21
75 | V21L | 4.58
76 | V21N | 4.92
77 | V21G | 4.94
78 | V21K | 4.68
79 | V21S | 5.51
80 | V21F | 3.3
81 | V21T | 4.64
82 | V21R | 4.18
83 | V21P | 5.55
84 | W23C | 3.4
85 | W23Y | 4.71
86 | W23Q | 5.54
87 | W23L | 5.12
88 | W23N | 3.89
89 | W23H | 5.61
90 | W23T | 4.9
91 | W23A | 5.32
92 | W23E | 5.79
93 | W23S | 5.24
94 | W23R | 4.58
95 | W23P | 5.29
96 | W23K | 4.41

Row | Variant | protein stability index
97 | W23F | 4.64
98 | W23D | 5.55
99 | W23I | 4.2
100 | W23M | 4.23
101 | T18Q | 3.21
102 | T18V | 3.88
103 | T18W | 2.7
104 | T18G | 4.38
105 | T18P | 4.33
106 | T18N | 3.69
107 | T18S | 4.41
108 | T18R | 3.93
109 | T18E | 4.2
110 | T18H | 4.09
111 | T18Y | 3.21
112 | T18K | 4.54
113 | T18F | 2.98
114 | T18M | 3.59
115 | T18L | 4.11
116 | T18I | 3.65
